Results published in paper PMC3323732 (Journal of Molecular Biology, 2011).

Tests used:
[1] = molecular target: the molecule itself; assay: thioflavin T fluorescence of fibril formation
[2] = molecular target: T1, myocilin C-terminal olfactomedin domain (myoc-OLF), cleaved from MBP, wild type (human, UniProt Q99972 228-504); assay: seeded fibril formation followed by thioflavin T fluorescence
T1 sequence (looked up): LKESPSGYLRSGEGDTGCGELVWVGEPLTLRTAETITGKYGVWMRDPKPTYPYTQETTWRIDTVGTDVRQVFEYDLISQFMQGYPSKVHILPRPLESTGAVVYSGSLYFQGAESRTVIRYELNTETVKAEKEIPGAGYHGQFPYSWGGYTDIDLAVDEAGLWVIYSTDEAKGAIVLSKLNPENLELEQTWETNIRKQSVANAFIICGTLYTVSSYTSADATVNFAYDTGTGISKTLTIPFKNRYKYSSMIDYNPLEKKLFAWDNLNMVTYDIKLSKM

SEC = molecular target: the molecule itself; assay: SEC

Row | Binder | binding result [1] | binding result [2] | binding result (SEC)
1 | myoc-OLF(Y437H), cleaved from MBP (domain or fragment, human, UniProt Q99972 228-504, looked up) LKESPSGYLRSGEGDTGCGELVWVGEPLTLRTAETITGKYGVWMRDPKPTYPYTQETTWRIDTVGTDVRQVFEYDLISQFMQGYPSKVHILPRPLESTGAVVYSGSLYFQGAESRTVIRYELNTETVKAEKEIPGAGYHGQFPYSWGGYTDIDLAVDEAGLWVIYSTDEAKGAIVLSKLNPENLELEQTWETNIRKQSVANAFIICGTLHTVSSYTSADATVNFAYDTGTGISKTLTIPFKNRYKYSSMIDYNPLEKKLFAWDNLNMVTYDIKLSKM | binds | binds | 
2 | MBP-OLF(P370L) (domain or fragment, human, UniProt Q99972 228-504, looked up) LKESPSGYLRSGEGDTGCGELVWVGEPLTLRTAETITGKYGVWMRDPKPTYPYTQETTWRIDTVGTDVRQVFEYDLISQFMQGYPSKVHILPRPLESTGAVVYSGSLYFQGAESRTVIRYELNTETVKAEKEIPGAGYHGQFLYSWGGYTDIDLAVDEAGLWVIYSTDEAKGAIVLSKLNPENLELEQTWETNIRKQSVANAFIICGTLYTVSSYTSADATVNFAYDTGTGISKTLTIPFKNRYKYSSMIDYNPLEKKLFAWDNLNMVTYDIKLSKM |  |  | binds
3 | MBP-OLF(Y437H) (domain or fragment, human, UniProt Q99972 228-504, looked up) LKESPSGYLRSGEGDTGCGELVWVGEPLTLRTAETITGKYGVWMRDPKPTYPYTQETTWRIDTVGTDVRQVFEYDLISQFMQGYPSKVHILPRPLESTGAVVYSGSLYFQGAESRTVIRYELNTETVKAEKEIPGAGYHGQFPYSWGGYTDIDLAVDEAGLWVIYSTDEAKGAIVLSKLNPENLELEQTWETNIRKQSVANAFIICGTLHTVSSYTSADATVNFAYDTGTGISKTLTIPFKNRYKYSSMIDYNPLEKKLFAWDNLNMVTYDIKLSKM |  |  | binds
4 | MBP-OLF(245-504) (domain or fragment, human, UniProt Q99972 245-504, looked up) CGELVWVGEPLTLRTAETITGKYGVWMRDPKPTYPYTQETTWRIDTVGTDVRQVFEYDLISQFMQGYPSKVHILPRPLESTGAVVYSGSLYFQGAESRTVIRYELNTETVKAEKEIPGAGYHGQFPYSWGGYTDIDLAVDEAGLWVIYSTDEAKGAIVLSKLNPENLELEQTWETNIRKQSVANAFIICGTLYTVSSYTSADATVNFAYDTGTGISKTLTIPFKNRYKYSSMIDYNPLEKKLFAWDNLNMVTYDIKLSKM |  |  | binds
5 | MBP-OLF(245-455) (domain or fragment, human, UniProt Q99972 245-455, looked up) CGELVWVGEPLTLRTAETITGKYGVWMRDPKPTYPYTQETTWRIDTVGTDVRQVFEYDLISQFMQGYPSKVHILPRPLESTGAVVYSGSLYFQGAESRTVIRYELNTETVKAEKEIPGAGYHGQFPYSWGGYTDIDLAVDEAGLWVIYSTDEAKGAIVLSKLNPENLELEQTWETNIRKQSVANAFIICGTLYTVSSYTSADATVNFAYDT |  |  | binds
